{
  "source": "paper PMC11852163",
  "about": "“Development and Characterization of CD44-Targeted X-Aptamers with Enhanced Binding Affinity for Cancer Therapeutics”",
  "key": {"CD44-HABD [1]": {"target": "CD44-HABD (UniProt P16070)", "sequence (P16070 20-178)": "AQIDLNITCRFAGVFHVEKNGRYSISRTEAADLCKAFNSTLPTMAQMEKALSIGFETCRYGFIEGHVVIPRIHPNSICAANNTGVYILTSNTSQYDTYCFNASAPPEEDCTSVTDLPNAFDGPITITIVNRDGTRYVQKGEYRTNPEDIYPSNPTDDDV", "assay": "filter binding", "conditions": "monothioate backbone, Filter binding: 1 nM biotinylated XA, 20 mM Tris pH 8.0, 150 mM NaCl, 40 min, room temperature, cell binding at room temperature, 30-60 min"}, "CD44-HABD [2]": {"target": "CD44-HABD (UniProt P16070 20-178)", "sequence (P16070 20-178)": "as above", "assay": "filter binding; Filter binding: 1 nM biotinylated XA, 20 mM Tris pH 8.0, 150 mM NaCl, 40 min, room temperature; cell binding at room temperature, 30-60 min", "conditions": "protein: recombinant; label: biotin"}},
  "data": [
    {"molecule": "TGCAGATACAGTAAACGTCCATAGACACAG [XA5-ADDA]", "values": [
      {"measurement": "Kd", "setting": "CD44-HABD [1]; X = T7, T18 as ADDA-conjugated amino-dU", "result": 125, "unit": "nM"}
    ]},
    {"molecule": "TGCAGATACAGTAAACGTCCATAGACACAG [XA5-NH2]", "values": [
      {"measurement": "Kd", "setting": "CD44-HABD [1]; X = T7, T18 as amino-dU", "result": 137, "unit": "nM"}
    ]},
    {"molecule": "TTAAGATCTGCAATGTAACCATAGACACAG [XA9-ADDA]", "values": [
      {"measurement": "Kd", "setting": "CD44-HABD [1]; X = T14 as ADDA-conjugated amino-dU", "result": 77.6, "unit": "nM"}
    ]},
    {"molecule": "TTAAGATCTGCAATGTAACCATAGACACAG [XA9-NH2]", "values": [
      {"measurement": "Kd", "setting": "CD44-HABD [1]; X = T14 as amino-dU", "result": 111, "unit": "nM"}
    ]},
    {"molecule": "TTAAGATCTGTTAGGGAACCAAGACGACAG [XA1-ADDA]", "values": [
      {"measurement": "Kd", "setting": "CD44-HABD [1]; X = T9, T11 as ADDA-conjugated amino-dU", "result": 78.3, "unit": "nM"}
    ]},
    {"molecule": "TTAAGATCTGTTAGGGAACCAAGACGACAG [XA1-NH2]", "values": [
      {"measurement": "Kd", "setting": "CD44-HABD [1]; X = T9, T11 as 5-(aminoethyl-3-acrylimido)-dU", "result": 55.5, "unit": "nM"}
    ]},
    {"molecule": "TTGGGGCCTGCAAGACGTCCATAGACACAG [XA4-ADDA]", "values": [
      {"measurement": "Kd", "setting": "CD44-HABD [1]; X = T18 as ADDA-conjugated amino-dU", "result": 103, "unit": "nM"}
    ]},
    {"molecule": "TTGGGGCCTGCAAGACGTCCATAGACACAG [XA4-NH2]", "values": [
      {"measurement": "Kd", "setting": "CD44-HABD [1]; X = T18 as amino-dU", "result": 137, "unit": "nM"}
    ]},
    {"molecule": "TGCAGATCTGCAAGGGAACCAAGGACACTAC (XNA, NH2 form; no X in the printed sequence, X position unknown; monothioate backbone)", "note": "[XA2-NH2]", "values": [
      {"measurement": "Kd", "setting": "CD44-HABD [2]", "result": "62.9 ± 10.3", "unit": "nM"}
    ]},
    {"molecule": "TGCAGATCTGCAAGGGAACCAAGGACACTAC (XNA, ADDA form; no X in the printed sequence, X position unknown; monothioate backbone)", "note": "[XA2-ADDA]", "values": [
      {"measurement": "Kd", "setting": "CD44-HABD [2]", "result": "109 ± 15.4", "unit": "nM"}
    ]}
  ]
}
